Patent publication US20210260163A1 (ASKGENE PHARMA, published 2021)
Changes are numbered by the printed parent chain. Numbers in names are those of the source. Each block holds one binder with its values, some of them ahead of it.

Assays:
[1] = target: T1, IL-2 ("IL-2 proteins" coated on the ELISA plate) (UniProt P60568 21-153, limits assumed); assay: ELISA, IL-2 coated, Fc-mask fusion titrated, pH 6.4
Protocol: (§1) 10 μg/ml of IL-2 proteins in PBS were seeded to the 96-well plate at 100 μl/well and coated at 4 degree for overnight. The wells were washed by PBS three times and blocked with 100 μl 2% milk/PBS for 1 hr. Then the wells were washed three times by PBS and 100 μl protein samples with 3-fold serial dilution were added to the wells for 1 hr incubation at room temperature. After three times of PBS washing, 100 μl of HRP conjugated anti-IgG antibody were added and incubated at RT for 1 hr. Subsequently, the wells were washed again by PBS for 3 times, detection reagents were added and OD450 nm were measured.
(§2) In order to discover improved versions of the IL-2 antagonist or mask with higher folds of activations upon protease cleavage, a number of mutations in the IL-2Rβ extracellular domain were constructed.

[2] = target: T1, IL-2 ("IL-2 proteins" coated on the …); assay: ELISA, IL-2 coated, pH 6.4; reference understood as wild type (SEQ ID NO: 195)
Protocol: as §1, §2

[3] = target: T1, IL-2 ("IL-2 proteins" coated on the …); assay: ELISA, IL-2 coated, pH 6.4; reference wild type
Protocol: as §1, §2

[4] = target: T1, IL-2 ("IL-2 proteins" coated on the …); assay: ELISA, IL-2 coated, Fc-mask fusion titrated, pH 7.4
Protocol: as §1, §2

[5] = target: T1, IL-2 ("IL-2 proteins" coated on the …); assay: ELISA, IL-2 coated, pH 7.4
Protocol: as §1, §2

[6] = target: T1, IL-2 ("IL-2 proteins" coated on the …); assay: ELISA, IL-2 coated, pH 7.4 and pH 6.4; reference understood as wild type (SEQ ID NO: 195)
Protocol: as §1, §2

T1 sequence (P60568 21-153 limits assumed): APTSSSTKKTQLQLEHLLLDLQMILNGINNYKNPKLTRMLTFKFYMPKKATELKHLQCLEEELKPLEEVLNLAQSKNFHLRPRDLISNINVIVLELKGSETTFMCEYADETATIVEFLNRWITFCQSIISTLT

Kd [1]: 128 µg/mL | fold better binding affinity at pH 6.4 [2]: 2 fold
B1: Fc with LALA and hole mutation (L234A-L235A-Y407T) fused with beta subunit containing mutation (E136Q) (SEQ ID NO: 204), homodimer (Fc fusion)
chain: DKTHTCPPCPAPEAAGGPSVFLFPPKPKDTLMISRTPEVTCVVVDVSHEDPEVKFNWYVDGVEVHNAKTKPREEQYNSTYRVVSVLTVLHQDWLNGKEYKCKVSNKALPAPIEKTISKAKGQPREPQVYTLPPSREEMTKNQVSLTCLVKGFYPSDIAVEWESNGQPENNYKTTPPVLDSDGSFFLTSKLTVDKSRWQQGNVFSCSVMHEALHNHYTQKSLSLSPGKGGGGSGGGGSGGGGISSGLLSSGGSGGSLSGRSDNHGGGGSAVNGTSQFTCFYNSRANISCVWSQDGALQDTSCQVHAWPDRRRWNQTCELLPVSQASWACNLILGAPDSQKLTTVDIVTLRVLCREGVRWRVMAIQDFKPFENLRLMAPISLQVVHVETHRCNISWEISQASHYFQRHLEFEARTLSPGHTWEEAPLLTLKQKQEWICLETLTPDTQYEFQVRVKPLQGEFTTWSPWSQPLAFRTKPAALGKDT

Kd [1]: 105 µg/mL | fold enhancement of binding affinity at pH 6.4 against wild type [3]: 2 fold | Kd [4]: 269 µg/mL
B2: Fc-mask fusion with beta subunit containing mutation (E136Q/H138R) (SEQ ID NO: 205), homodimer (Fc fusion)
chain: B1 chain with H406R

Kd [1]: 187 µg/mL | fold better binding affinity at pH 6.4 [2]: 2 fold
B3: Fc with LALA and hole mutation (L234A-L235A-Y407T) fused with beta subunit containing mutation (S69H) (SEQ ID NO: 201), homodimer (Fc fusion)
chain: B1 chain with S337H, Q404E

binding result [5]: no binding
B4: Fc with LALA and hole mutation (L234A-L235A-Y407T) fused with beta subunit containing mutation (V75Q) (SEQ ID NO: 202), homodimer (Fc fusion)
chain: B1 chain with V343Q, Q404E

Kd [1]: 118 µg/mL | fold increase of binding affinity at pH 7.4 and pH 6.4 [6]: 2 fold | Kd [4]: 124 µg/mL
B5: Fc with LALA and hole mutation (L234A-L235A-Y407T) fused with beta subunit containing mutation (D68E) (SEQ ID NO: 200), homodimer (Fc fusion)
chain: B1 chain with D336E, Q404E

binding result [5]: no binding
B6: Fc with LALA and hole mutation (L234A-L235A-Y407T) fused with beta subunit containing mutation (V75F) (SEQ ID NO: 203), homodimer (Fc fusion)
chain: B1 chain with V343F, Q404E

binding result [5]: no binding
B7: Fc with LALA and hole mutation (L234A-L235A-Y407T) fused with beta subunit containing mutation R15Y (SEQ ID NO: 199), homodimer (Fc fusion)
chain: B1 chain with R283Y, Q404E

Kd [1]: 269 µg/mL | Kd [4]: 219 µg/mL
B8: Fc with LALA and hole mutation (L234A-L235A-Y407T) with beta subunit (SEQ ID NO: 195), expressed as homodimer (Fc fusion)
chain: DKTHTCPPCPAPEAAGGPSVFLFPPKPKDTLMISRTPEVTCVVVDVSHEDPEVKFNWYVDGVEVHNAKTKPREEQYNSTYRVVSVLTVLHQDWLNGKEYKCKVSNKALPAPIEKTISKAKGQPREPQVYTLPPSREEMTKNQVSLTCLVKGFYPSDIAVEWESNGQPENNYKTTPPVLDSDGSFFLTSKLTVDKSRWQQGNVFSCSVMHEALHNHYTQKSLSLSPGKGGGGSGGGGSGGGGSLSGRSDNHGGGGSAVNGTSQFTCFYNSRANISCVWSQDGALQDTSCQVHAWPDRRRWNQTCELLPVSQASWACNLILGAPDSQKLTTVDIVTLRVLCREGVRWRVMAIQDFKPFENLRLMAPISLQVVHVETHRCNISWEISQASHYFERHLEFEARTLSPGHTWEEAPLLTLKQKQEWICLETLTPDTQYEFQVRVKPLQGEFTTWSPWSQPLAFRTKPAALGKDT
notes: also called WT
